Reference: publication PMC11238991

Assays:
[1] = biological target: cleaved-αA (human αA-crystallin made as his-SUMO fusion, tag removed by ulp-1) (human) (UniProt P02489); experiment: SEC; analytical; 2.0 mg/mL of each variant on Superose 6 Increase in 20 mM Tris-HCl pH 7.8, 150 mM NaCl, 0.25 mL/min; molar mass from protein standards, number of subunits predicted from it; three experiments
[2] = biological target: recombinant human αA-crystallin (αA) (human) (UniProt P02489); experiment: as above

recombinant human αA-crystallin (αA), sequence (P02489 whole entry): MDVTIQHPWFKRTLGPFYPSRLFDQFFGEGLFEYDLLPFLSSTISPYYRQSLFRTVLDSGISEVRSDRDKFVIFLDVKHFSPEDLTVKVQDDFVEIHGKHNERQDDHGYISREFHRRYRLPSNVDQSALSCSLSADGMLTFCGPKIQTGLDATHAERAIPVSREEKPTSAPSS
cleaved-αA (human αA-crystallin made as his-SUMO fusion, tag removed by ulp-1), sequence (P02489 whole entry, the tested form may be a part): as the sequence (P02489 whole entry) above

Substance	stoichiometry N [1]	stoichiometry N [2]
cleaved-αA (human αA-crystallin made as his-SUMO fusion, tag removed by ulp-1) (from UniProt P02489 1-173) (natural protein)	13 to 22 subunits	
recombinant human αA-crystallin (αA) (from UniProt P02489 1-173) (natural protein)		27 to 32 subunits
